Kd data for four substances are collected here from paper PMC5973842.

Series [1] relates to eNP-2 (Ebola virus). Description: fluorescence polarization.
In series [2] the test system is eNP-3 (Ebola virus). Description: fluorescence polarization.
The subject of series [3] is eNP WT (Ebola virus). Description: fluorescence polarization. A general note: In fluorescence polarisation assays a small probe gives low polarisation when free and higher when bound to something large.
In series [4] the target is FITC-labeled eVP35 NPBP (Ebola virus). Nature of the series: fluorescence polarisation.

Consider 20 nt ssRNA, for which the results for the equilibrium dissociation constant (Kd) in series [1], in series [2] and in series [3] were 68 nM, 15 nM and 13 nM, respectively.

On to “Ebola virus nucleoprotein, full-length wildtype construct (from UniProt P18272 1-739) (natural protein)”, for which the Kd – broadly, the constant that tells how readily two partners part at equilibrium – in series [4] worked out at 10.6 nM. “eNP-2 (Ebola virus nucleoprotein N-terminal construct lacking the first 24 residues) (domain or fragment)” had a Kd in series [4] of 1.9 nM.

For the substance “eNP-3 (Ebola virus nucleoprotein N-terminal construct that includes the first 24 residues) (domain or fragment)”, the equilibrium dissociation constant (Kd) in series [4] amounted to 12.8 nM.
